Reference: patent US20250206839A1, “METHODS, COMPOSITIONS AND USES FOR SEMA7A MONOCLONAL ANTIBODIES” (THE REGENTS OF THE UNIVERSITY OF COLORADO, A BODY CORPORATE, priority 2022, published 2025)
“Also recorded” adds a separate entry of the source.

What was measured:
[1] = target: T1, purified SEMA7A (Homo sapiens, UniProt O75326); assay: ELISA binding to purified SEMA7A; conditions: serial dilution
T1 construct: Fc; made in house; host or cells: cells stably transfected with SEMA7A-Fc plasmid (human breast cancer cells); purified from medium
T1 sequence (O75326 45-648 limits assumed): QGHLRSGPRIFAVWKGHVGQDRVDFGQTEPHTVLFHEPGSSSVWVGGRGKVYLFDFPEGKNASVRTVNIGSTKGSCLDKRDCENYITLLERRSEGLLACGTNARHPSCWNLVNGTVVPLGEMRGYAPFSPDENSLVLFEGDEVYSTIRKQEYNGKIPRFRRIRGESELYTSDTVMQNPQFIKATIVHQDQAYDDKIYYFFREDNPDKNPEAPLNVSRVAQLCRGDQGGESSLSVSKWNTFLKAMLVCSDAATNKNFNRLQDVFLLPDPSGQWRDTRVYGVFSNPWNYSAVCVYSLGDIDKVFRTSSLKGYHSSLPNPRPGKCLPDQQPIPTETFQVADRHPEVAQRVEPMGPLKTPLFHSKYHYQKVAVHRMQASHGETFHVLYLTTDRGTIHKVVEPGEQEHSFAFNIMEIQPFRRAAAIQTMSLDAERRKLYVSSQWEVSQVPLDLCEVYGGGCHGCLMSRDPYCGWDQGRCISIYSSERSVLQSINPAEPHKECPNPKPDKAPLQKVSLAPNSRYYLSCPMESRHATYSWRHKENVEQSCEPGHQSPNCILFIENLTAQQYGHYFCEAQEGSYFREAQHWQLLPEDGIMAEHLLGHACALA
Description: The MultiSorp ELISA 96 well ELISA plate (Thermo Scientific) was coated with 100 μl per well of 50 μg/ml of purified SEMA7A in Coating Buffer A (Thermo Scientific CB07100) and allowed to attach overnight with gentle rocking at 4 degrees. For the peptide competition, half of the antibody was incubated in an Eppendorf tube overnight at a ratio of 1:10 with the SEMA7A peptide on a rotator at 4 degrees. The plate was washed with 200 μl per well of 1× wash buffer (Thermo Scientific WB01) and blocked with 200 μl 1× assay buffer (Thermo Scientific DS98200) for 2 hours and room temp with gentle rocking. 1× assay buffer was removed and a 200 μl serial dilution of SMEA7A mAb in 1× assay buffer was made from columns 1 through 9, with column 10-12 getting 1× assay buffer only. The plate was incubated overnight with gentle rocking at 4 degrees. The plate was washed twice with 200 μl of 1× wash buffer. 100 μl of 200 ng/ml Goat Anti-Mouse IgG HRP (Abcam 97040) in 1× assay buffer was added to columns 1-11, with column 12 getting 1× assay buffer only. The plate was incubated for 2 hours with gentle rocking at room temp. The plate was washed four times with 200 μl 1× wash buffer. 150 μl SuperSignal Femto for ELISA (Thermo Scientific) was mixed 1:1 added to each well and mixed for 1 min and then left to rock at room temperature for 30 minutes. The absorbance was read at 425 nm on a microplate reader.

[2] = tested on: 66cl4 Sema7A DDK cells; assay: IncuCyte percent confluence time course; assay type: cell-based, mouse
Description: For proliferation assays, cells were plated at 2000 cells per well of a 96-well dish. Four pictures of different regions in each well were taken every four hours for 48 h using an IncuCyte ZOOM (Essen BioScience, Ann Arbor, MI, USA). Percent confluence was determined using the IncuCyte ZOOM software (Essen BioScience). 66cl4 Sema7A DDK cells were plated in a 96-well plate in triplicate at 1,500 cells/well. They sat down over 24 hours and then were treated with 1000 nM IgG control, 10 nM SmAbH1, 100 nM SmAbH1, 200 nM SmAbH1, 500 nM SmAbH1, or 1000 nM SmAbH1. The plate was promptly transferred to the IncuCyte where photos were taken and analyzed every 4 hours for 7 days. For additional treatment studies in MCF7, TC11 and SSM2 cells ([…]) were plated in a 24-well plate in complete media and allowed to sit down over 24 hours. At 24 hours after plating, cells were treated with 500 nM IgG control, 500 nM SmAbH1, 8 nM Fulvestrant or the combination. The plate was incubated at 37 C for 48 hours, then fixed with 10% NBF and stained with crystal violet.

[3] = tested on: SEMA7A OE E0771 mouse mammary carcinoma cells; assay: E0771 SEMA7A OE mouse mammary carcinoma model, in vivo antibody treatment; conditions: SmAbH1 alone
Description: For initial in vivo studies with SmABHI. SEMA7A OE E0771 mouse mammary carcinoma cells were injected into mice. Twenty days after carcinoma cells were injected. SmAbH1 (e.g., 12 ug) was administered intraperitoneally to the mice every three days until day 36 post-carcinoma cell injection. Tissues were collected at day 36. Tumors, lungs, and LNs were harvested and processed for IHC and flow cytometry to determine the effect of SEMA7A mAb therapy on cells of the tumor microenvironment (TME). In an additional experiment, tumors were treated at day 28 post-injection with a novel SEMA7A directed antibody, monoclonal antibody clone H1. Fully regressed tumors were removed from treatment at day 50) and the animals were re-challenged with an additional tumor inoculation at day 90 to assess SEMA7A mAb effects. Finally, to examine changes in immune cells in the tumor microenvironment, tumors were treated at day 13 post-inoculation and harvested at day 18. During this time period, tumors were actively regressing (FIGS. 2A-2C).
E0771 model: Female C57/BL6 mice were injected orthotopically into the left and right #4 mammary fat pads with 200,000 E0771 SEMA7A OE mouse mammary carcinoma cells. Tumors were measured every day once tumors became palpable (3 days post injection). […]

[4] = tested on: pNFκB in MDA231 cells; assay: Western blot for phosphorylation of NFκB; assay type: cell-based, human; conditions: MDA231, high SEMA7A
Description: (§1) In another exemplary method, the ability of the anti-SEMA7A monoclonal antibodies to affect cellular processes related to cell survival was tested. In one exemplary method, human triple negative breast cancer cell lines with low (MDA468) or high (MDA231) levels of SEMA7A were treated with SmAbH1 (CUH1) or commercially available monoclonal antibody-based inhibitors of an integrin receptor for SEMA7A (α6β1) and then evaluated using Western blot for phosphorylation of NFκB (pNFκB), a key survival marker.

[5] = tested on: pNFκB in MDA468 cells; assay: Western blot for phosphorylation of NFκB; assay type: cell-based, human; conditions: MDA468, low SEMA7A
Description: as §1

B1: SmAbH1: mouse monoclonal antibody against SEMA7A generated using the 10-mer immunizing peptide … (SEQ ID NO: 2) (antibody, V domains shown)
VH: QVKLQESGTVLARPGASVKMSCKASVYSFTSYWMHWVKQRPGQGLEWIGAIYPGNSDTSYNQKFKGKAKLTAVTSASTAYMELSSLTNEDSAVYYCTRGGAPTMITAYYAMDYWGQGTSVTVSS
VL: DIQMTQTTSSLSASLGDRVTISCRASQDISNYLNWYQQKPDGTVKLLIYYTSRLHSGVPSRFSGSGSGTDYSLTISNLEQEDIATYFCQQGNTLPWTFGGGTKLEIKR
Q: What does the source list for B1?
A: binding to purified SEMA7A [1]: bound to purified SEMA7A in a dose dependent manner; viability / percent confluence over time ([2]; 66cl4, 10-1000 nM SmAbH1, 7 days): decreased viability; also recorded: dose dependency; decrease of cellular confluence compared to commercially available SEMA7A directed antibodies ([2]; 66cl4 DDK and DDK SEMA7A cells, vs SC-374432 and Ab23578): greater than commercially available; tumor growth and metastasis compared to anti-PD-L1 and the combination [3]: superior at reducing both tumor growth and metastasis; downstream NFκB activation (pNFκB levels) [4]: blocked downstream NFκB activation; also recorded: the effect was stronger; downstream NFκB activation (pNFκB levels) [5]: blocked downstream NFκB activation
